Assay results reported in the supplement of paper PMC9170038.

Test system: MS2 coat protein
Test: apparent KD of MS2 coat protein; higher = weaker reporter binding
Conditions: Eterna round: R107
Method in brief: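 Normalised binding curves from single clusters were fitted, and the median fit for each design is given as apparent KD. The clusters held designed RNA switches transcribed on-chip from Illumina sequencing clusters. These were titrated with SNAP-549-labelled MS2 coat protein (twofold steps from 0.7 or 1.5 nM to 3 µM, 0.8–1.5 h to 10–20 min per step) in 100 mM Tris-HCl pH 7.5, 80 mM KCl, 4 mM MgCl2, without or with constant ligand.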

[1] = input ligand: theophylline 20 uM
[2] = input ligand: theophylline 2 mM
[3] = input ligand: tryptophan 2.4 mM

Sequence | apparent KD of MS2 coat protein (input ligand: arginine 13.2 mM) [nM] | apparent KD of MS2 coat protein (input ligand: none) [nM] | apparent KD of MS2 coat protein [1] [nM] | apparent KD of MS2 coat protein [2] [nM] | apparent KD of MS2 coat protein [3] [nM]
GUAGGUCACCUCAUGAGACCUACCCUGGAAGGAGCGAGCGAAAGCUCAGGUAGGUCGCCAGAAACAUGAGGAUCACCCAUGUAAU [(A)''-(M)'-(A)'-(Arg1)-(Arg2)-(M1)-(M2)_Design3] | 29.4 | 51.1 | 150 | 190 | 44.6
GUAGGUCAGUGAUCCCGACCUACACUGGAAGGAGCGAGCGAAAGCUCAGGUAGGUCGCCAGAAACAUGAGGAUCACCCAUGUAAU [(A)''-(M)'-(A)'-(Arg1)-(Arg2)-(M1)-(M2)_Design1] | 76.1 | 172 | 153 | 219 | 118
GUAUAAAGAAAACUUUAUACAGUGGGUGAACGAGGACCGGUACGGCCGCCACUCGGACAUGAGGAUCACCCAUGUCCAUGUGAAA [AstrosExyTryA#9] | 14.4 | 14.3 | 13.9 | 17 | 37.2
GUAUAUAUGCGAAGGAGCGGGAAAUAUAUAUAUAUAAUCCUAACAUGAGGAUCACCCAUGUCCCAGGUAGGUCGCGCAUAUAUAU [12.B] | 68.7 | 69.6 | 86.9 | 83.6 | 76.1
GUCAGUGACUGAAGGAGCGACAUGAGGAUCACCCAUGUCUCCCGUUAUGGGAGUUCCUUAGGUCAGGUAGGUCGCAGUCACUGAC [#1 Exclusion - Arginine B Attempt #29 (Inspired by Omei)] | 174 | 123 | 163 | 188 | 95.7
GUCGCUGAGGGAAGGAGCGUGAAGACAUGAGGAUCACCCAUGUAGAGGCGCCGAAGGCGUUCGCAGGUAGGUCGCCCUCAGUGAC [#1 Same State - Arginine B Attempt #22 (HarryS)] | 42.4 | 19.3 | 23.2 | 16.7 | 16.8
GUCGGUACGUCGGCAAAGCCGAUGUGCCAGCGAGGACCGGUACGGCCGCCACUCGUACAUGAGGAUCACCCAUGUCCGGUCCGGC [Omei Trp SS A C v2] | 32.5 | – | 84.4 | 92.4 | –
GUGGAGACAUGAGAUACCAGUCUCUUUAACAUGAGGAUCACCCAUGUAAUGCUCCUCGGAGACCCUUGGCAGCUCAGUAUGAUGA [#09 Exclusion-TheophyllineB] | 32.2 | – | 71.7 | – | 34.4
GUUAUGAUAAGAAGGAGCGUCGAAAAUGGGUAAACAUGAGGAUCACCCAUGUAAAGGGAACGACAGGUAGGUCGCUUAUUAUAAC [AstromonsSSArgB#20] | 86.8 | 190 | 270 | 161 | 154
GUUGAGACCUCGGCCGCCACUCGCCAUGAGGAUCUCCCAUGUAACAUGAGGAUCACCCAUGUACUGAGGACCGGGAGGUCCUAGU [Same State Tryptophan B GF 15] | 17.2 | 17.4 | 34 | 33.5 | 65.6
GUUUAGAGCUCGGCCGCCACUCAAACAUGAGGAUCACCCAUGUAAAACAUGAGGAUCACCCAUGUGAGGACCGGGAGAAAUAAGA [Exclusion Tryptophan B GF7] | 242 | 337 | 370 | 435 | 420
UAAAACAUGAGGAUCACCCAUGUAAAAGAUACCAGAGUGAUGAUCCUCCCUUGGCAGCUUAACGCUGAUUGAUUACAAUCAGCGA [Mat - Same State Theophlline A - Mod of Eli - D21] | 75.4 | – | 124 | – | 53.3
UAACAUGAGGAUCACCCAUGUAAACUAAGUCGAGGACCGGUACGGCCGCCACUCGAAAUUGAAGAAUUGGCGGAAAAUGUAUGUU [JR_ExcTryptoA_Sub018] | 12 | – | 17.7 | 13.3 | –
UAAUAAGUACCGGUCCUCAGAUCCUCAUGACGAGGACCGGUACGGCCGCCACUCGAAACAUGAGGAUCACCCAUGUAAUAAUAAC [Brourdmod03] | 23 | – | 77 | 45.2 | –
UAGACGGCCGGAAGGAGCGGUACAUGAGGAUCACCCAUGUACUUCUGGGCAUCCGUAGUGUGCCAGGUAGGUCGCCGGUUGCGGG [XArg-B20] | 45.9 | 14.4 | 32.4 | 33.1 | 19.9
UAGCGAUAAUCUGAUACCAGACGUGUACUCUCCUCAGACAUGAGCAUCAGCCAUGUAUGCGUCCCUUGGCAGCAGAGAUAGGAGA [Theo B Ex t5b] | 16.9 | 16.1 | 24.5 | 36.7 | 16.9
UAGUUAGCGGCGGCCGCCACUCGAGAUAUAACAUGAUAUCAUAACAUGAGGAUCACCCAUGUCACGAGGACCGGGCCGAUCUUCA [Same State Typptophan B GF6] | 27.9 | 48.5 | 102 | 163 | 49.4
UAUAUAUAAACAUGAGGAUCACCCAUGUAACGAGGACCGGUACGGCCGCCACUCGGCCGGCAAGGGAGAGGACGGGAAACCGUCG [ETA NP+V+V2 #27] | 12.5 | 13.4 | 19.3 | 15.9 | 17.1
UAUAUAUAUAUGGAUACCAGCAGAGAAAACGUUUAUCCUAACAUGAGGAUCACCCAUGUAUGCCCUUGGCAGCUGUAUAUAUAUA [8.G] | 21.4 | – | 29.5 | – | 24.7
UAUCCACAUGAGGAUCACCCAUGUAAGGAAGGAGCGGUGAAUGCACCAGGUAGGUCGCCUUGCUGAGGACAGCCGGUGGAUUCGU [Exclusion - Arginine A (Freestyle 24)] | 14.7 | 17.7 | 17.9 | 21.9 | 16.2
UAUCGUCAGACGGCCGCCACUAGAACAUGAGGAUCACCCAUGUAAGUGGCCGGUCUCCUCAUGACUAGGACCGGGUCUGACGAAU [(Trp1)-(Ms2)-(T)'-(M)'-(Trp2)_Design18] | 9.69 | – | 14.1 | 10.9 | –
UCACAUGAGGAUCACCCAUGUACAGGCGAUACCAGCCGUACAUUGGGCCCUUGGCAGCGCACCGAGGACUUUUUAAGCAUCUCGG [Diatbeen] | 26.2 | 19.8 | 401 | 282 | 23.8
UCACAUGAGGAUCACCCAUGUCCAGGUGAAGGAGCGAUUAGGGAGUCAGGUAGGUCGCACCACAUGAGGAUCACCCAUGUGCCUG [EAA NP+V+V2 #8 DOUBLE] | 18.4 | 22.8 | 27.5 | 25.4 | 24.1
UCAGCACAUGAGGAUCACCCAUGUCGUGAUACCAGCCUGUGCGAAGGCCCUUGGCAGCACAGUCCCGAUUUGCUUAUAUGCACUU [theeternabot_sameState_MS2_Theo_A_48] | 32.4 | – | 61 | – | 34.4
UCGCCCAGAAAGGAUUCCUGGGAUAUGGAAGGAGCGCUGAUGCCAGCAGGUAGGUCGCCAACGGACAUGAGGAUCACCCAUGUAC [Same State - Arginine A (Freestyle 7)] | 15.4 | 17.3 | 25.7 | 21.7 | 18
UCGCCCAGGAUGGAAUCCUGGGAUAUGGAAGGAGCGCUGAUGCCAGCAGGUAGGUCGCCAACGGACAUGAGGAUCACCCAUGUAC [Same State - Arginine A (Freestyle 9)] | 17.7 | 19.1 | 28.8 | 21.2 | 18.6
UCGCUCUGGGUGAGAUCCGGAGAUAUGGAAGGAGCGCUGAUGCCAGCAGGUAGGUCGCCAACGGACAUGAGGAUCACCCAUGUAC [Same State - Arginine A (Freestyle 10)] | 25 | 52.4 | 64.2 | 34.5 | 39.8
UCGUGUCUAUUGGUUUAGCUUUAAUCGUUACGAGGACCGGUACGGCCGCCACUCGAUUUAACAUGAGGAUCACCCAUGUACUCUC [JR_ExcTryptoA_Sub012] | 17.5 | – | 26.6 | 21.4 | –
